Measured values: US6730828B1, “Isolated nucleic acids encoding a wheat glutathione transferase, plants transformed therewith and methods of use thereof” (Aventis Agriculture Limited, priority 1997, dated 2004)
One block for each molecule: values may come before it.

Assays:
[1] = GST activity toward herbicide fluorodifen (HPLC-based assay); format: biochemical
Experimental: (§1) The purified isoenzymes were assayed for GST activity toward herbicides using the HPLC-based assays described by Edwards R. and Cole D. J. (Pesticide Biochemistry and Physiology Vol. 54, pp96-104 (1996)) and the results are presented in Table 2. […] These isoenzymes had additional activities as glutathione peroxidases able to reduce linoleic acid hydroperoxide, a major reaction product formed during membrane peroxidation in plants (Williamson and Beverly. J. Cereal Sci. 8, 1988, 155-163).
(§2) To assay the recombinant fusion proteins for GST activity, the E. coli were grown in the presence of IPTG and then pelleted by centrifugation. The bacteria were then lysed by sonication and the protein precipitated using 80% ammonium sulphate. After resuspension and desalting, GSTs were purified by affinity chromatography. The WIC 3 fusion protein was purified using sulphobromophthalein-S-glutathione affinity chromatography (Mozer et al. Biochem. 22, 1983, 1068-1072) while the other WIC fusion proteins were purified using glutathione-agarose (Mannervik and Guthenberg. Methods Enzymol. 77 1981, 231-235).The purified enzymes were then assayed for GST activities toward herbicides (Table 3) and GST activities toward non-herbicide substrates and glutathione peroxidase activities toward organic hydroperoxides (Table 4).
(§3) A polyclonal antiserum was raised in a rabbit to a mixture of TaGST1-2 and TaGST1-3. When tested against crude extracts from safener-treated wheat shoots the antiserum recognised both the 25 kDa TaGST1 subunit and the 26 kDa safener-inducible TaGST2 and TaGST3 subunits. The antiserum was then used in conjunction with the antiserum raised to TaGST1-1 to immuno screen the cDNA library prepared from fenchlorazole ethyl treated wheat shoots as described in example 1. Duplicate lifts were taken from the plated out library and the first blot screened with the antiserum raised against TaGST1-2 and TaGST1-3. The second blot was screened with the antiserum raised to TaGST1-1. Five plaques were identified from the first blot which were absent from the second blot corresponding to cDNAs encoding TaGST2 or TaGST3 like polypeptides and theses clones were purified and the respective plasmids sequenced. […] The other three clones ICC. ICP and ICV had identical DNA sequences (SEQ ID No. 17) and predicted amino acid sequence (SEQ ID No. 18). GST ICJ was sub-cloned into the pET 11a vector after using PCR to introduce a Nde 1 restriction site into the translation start site, using the primer 5′ AGGTAGTTACATATGGCCGGAGGA 3′ (SEQ ID No. 19) in the amplification. following sub-cloning, the sequence of GST ICJ was re-checked to ensure no PCR induced errors had been introduced. The recombinant GST ICJ was then expressed in E. coli and purified by S-hexylglutathione affinity chromatography. The purified GST ICJ was assayed for activities as a GST (Table 3) and as a glutathione peroxidase (Table 4). […] GST ICV was finally expressed as the respective beta-galactosidase fusion protein using the Bluescript plasmid and assayed for GST activity (Table 3 ) and glutathione peroxidase activity (Table 4) in crude bacterial lysates. The specific activity of GST ICV toward these substrates was then calculated by I) subtracting the low levels of GST and GPOX activity present due the endogenous activities in the E. coli and ii) determining the proportion of protein in the lysate present as recombinant GST ICV from SDS-PAGE analysis, by densitometry analysis of polypeptides stained with Coomassie blue.

[2] = GST activity toward herbicide fenoxaprop-ethyl (HPLC-based assay); format: biochemical
Experimental: as §1, §2, §3

[3] = Glutathione peroxidase activity toward cumene hydroperoxide; format: biochemical
Experimental: as §2, §3

[4] = GST activity toward herbicide metolachlor (HPLC-based assay); format: biochemical
Experimental: as §1, §2, §3

GST activity toward CDNB = format: biochemical
Experimental: as §1
To confirm that TaGST1 encoded a GST, it was expressed as a fusion protein with beta-galactosidase using the pBluescript plasmid in E. coli strain SOLR. TaGST1 clones were inoculated into LB liquid medium and were grown overnight at 37/C on all orbital shaker in the presence of IPTG. Bacteria were then pelleted by centrifugation, lysed by sonication and assayed for GST activity toward CDNB and analysed by SDS-PAGE and Western blotting using the anti-TaGSTI-I serum. With all six TaGST1 clones, GST activity toward CDNB could be determined in the crude extracts in the range 30-50 nkat/mg crude lysate.
as §2
as §3, with “The specific activity of GST ICV toward these substrates was then calculated by I) subtracting the low levels of GST and GPOX activity present due the endogenous activities in the E. coli and ii) determining the proportion of protein in the lysate present as recombinant GST ICV from SDS-PAGE analysis, by densitometry analysis of polypeptides stained with Coomassie blue.” left out

wheat shoots = experiment: Enhancement of GST isoenzyme expression in wheat shoots by safener fenchlorazole-ethyl; format: in vivo, Triticum aestivum L. var. Hunter
Experimental: Wheat seeds (Triticum aestivum L. var. Hunter) were imbibed in a 10 mg/l solution of the herbicide safener fenchlorazole-ethyl and then grown in an environmental growth room with further root-applied watering treatments of 5 mg/l fenchlorazole ethyl applied as required. At 10 days after imbibing, the shoot tissue was harvested and extracted prior to precipitation of the protein with ammonium sulphate (80% saturation). The total protein extract was then applied in the presence of 1 M ammonium sulphate to a phenyl-Sepharose column. The bound GSTs were then recovered, firstly by reducing the ammonium sulphate concentration to 0 M to yield the polar GST fraction, which represented 61% of the recovered activity toward 1-chloro-2,4-dinitrobenzene (CDNB). The remaining 39% of the GST activity was then recovered by adding ethylene glycol (50% v/v) to the running buffer to yield the hydrophobic GST fraction. […] The component polypeptides in the active fractions were then analysed by silver staining after resolution by sodium dodecyl sulphate polyacrylamide gel electrophoresis (SDS-PAGE). It was concluded that in fenchlorazole-ethyl-treated wheat the polar GSTs were composed of 25 kDa and 26 kDa polypeptides, while the hydrophobic fraction contained 25 kDa, 26 kDa and 24 kDa polypeptides. Further analysis by reversed-phase HPLC confirmed the subunit compositions (FIG. 2). Based on the combined analyses by Q-sepharose, HPLC and SDS-PAGE these GST polypeptides were named as described in Table 1, which also contains details of how these subunits associate together to form the active dimers found in plants and the relative abundance of these subunits in extracts from unsafened and fenchlorazole-ethyl treated ([…]) plants.

[5] = recombinant wheat GST expressed in E. coli, affinity purified, ± standard error
[6] = recombinant wheat GST expressed in E. coli, affinity purified
[7] = beta-galactosidase fusion in crude bacterial lysates, E. coli background subtracted, corrected for proportion of recombinant protein
[8] = isoenzymes purified from fenchlorazole-ethyl-treated wheat shoots

B1: TA 27: recombinant wheat GST from cloquintocet-mexyl-induced cDNA, SEQ ID No. 13, amino acid SEQ ID No. 14, expressed from pET 11a (protein)
chain: MEPMKVYGWAVSPWMARVLVSLEEAGADYELVPMSRNGGDHRRPEHLARNPFGEIPVLEYGGLTLYQSRAIARHILRKHKPGLLGAGSLEESAMVDVWVDVDAHHLEPVLKPIVWNCIINPFVGRDVDQGLVDESVEKLKKLLEVYEARLSSNKYLAGDFVSFADLTHFSFMRYFMATEHAVVLDAYPHVKAWWKALLARPSVKKVIAGMPPDFGFGSGRIP
modifications: Triticum aestivum L.
GST activity toward fluorodifen [1, 5]: 0.034 ± 0.003 nkat.mg^−1
GST activity toward fenoxaprop-ethyl [2, 5]: 0.036 ± 0.004 nkat.mg^−1
Glutathione peroxidase activity toward cumene hydroperoxide ([3]; recombinant wheat GST, affinity purified, ± standard error (n = 3)): 3.6 ± 0.4 absorbance change at 340 nm.mg^−1
GST activity toward metolachlor [4, 5]: 0.063 ± 0.006 nkat.mg^−1
GST activity toward CDNB (GST activity toward CDNB; [6]): 237 nkat.mg^−1

B2: ICC/V/P: recombinant type III wheat GST; clones ICC, ICP and ICV with identical sequence, SEQ ID No. 17, amino acid SEQ ID No. 18 (protein)
chain: MAGGEELKLLGWWAPGVSPYVLRAQMALAVKGLSYDYLPEDRWSTSDLLIASNPVYKKVPVLIHNGRPVCESLLILEYLDDAVGLAGNGKPILPADPYSRAVARFWAAYVNDKLFPSCTGILKTTKQEERAGKMEETLSGLRHLEAVMAECSEGEAEAPFFGGDAIGFLDIALGCYLPWFEAAGRLAGLGPIIDPARTPKLAAWAERFSVAEPIKALLPGVDKLEEYITTALYPKWNIAVTGN
modifications: Triticum aestivum L.
GST activity toward fluorodifen [1, 7]: 0.000 ± 0.000 nkat.mg^−1
GST activity toward fenoxaprop-ethyl [2, 7]: 0.074 ± 0.008 nkat.mg^−1
Glutathione peroxidase activity toward cumene hydroperoxide [3, 7]: 0.84 ± 0.04 absorbance change at 340 nm.mg^−1
GST activity toward metolachlor [4, 7]: 0.000 ± 0.000 nkat.mg^−1
GST activity toward CDNB (GST activity toward CDNB; [7]): 30 nkat.mg^−1

% enhancement by safener (wheat shoots; fenchlorazole-ethyl treated (safened) versus unsafened wheat shoots): 30-50%
Increase in expression following exposure to fenchlorazole-ethyl (wheat shoots; leaves of wheat seedlings): approximately 50%
B3: TaGST1-1: wheat GST isoenzyme purified from safener-treated shoots, homodimer of 25 kDa TaGST1 subunits (SEQ ID No. 2/SEQ ID No. 2) (protein)
chain 1: MAGEKGLVLLDFWVSPFGQRVRIALAEKGLPYEYAEEDLMAGKSDRLLRANPVHKKIPVLLHDGRAVNESLIILQYLEEAFPDAPALLPSDPYARAQARFWADYVDKKVYDCGSRLWKLKGEPQAQARAEMLDILKTLDGALGDKPFFGGDKFGFVDAAFAPFTAWFHSYERYGEFSLPEVAPKIAAWAKRCGERESVAKSLYSPDKVYDFIGLLKKKYGIE
chain 2: B3 chain 1
modifications: homodimer; Triticum aestivum L.
GST activity toward fluorodifen [1, 8]: 0.97 nkat.mg^−1
GST activity toward fenoxaprop-ethyl [2, 8]: 0 nkat.mg^−1
GST activity toward metolachlor [4, 8]: 0.11 nkat.mg^−1
GST activity toward CDNB (GST activity toward CDNB; [8]): 1,528 nkat.mg^−1

B4: ICR: recombinant safener-inducible type III wheat GST clone, SEQ ID No. 15, amino acid SEQ ID No. 16 (protein)
chain: MAGDGELKLLGVWTSPFVIRVRVVLNLKSLPYEYVEESLGSKSALLLGSNPVHQSVPVLLHGGRPVNESQVIVQYIDEVWAGAGPSVLPADPYERATARFWAAYVDDKVGSAWTGMLFSCKTEEERAEAVSRAVAALETLEGAFAECSKGKAFFGGDAIGFVDVVLGGYLGWFGAIDKIIGRRLIDPARTPLLARWEERFRAADAAKGVVPDDADKMLEFLPTVLAWIAGKAK
modifications: Triticum aestivum L.
GST activity toward fluorodifen [1, 5]: 0.037 ± 0.002 nkat.mg^−1
GST activity toward fenoxaprop-ethyl [2, 5]: 0.028 ± 0.001 nkat.mg^−1
GST activity toward metolachlor [4, 5]: 0.000 ± 0.000 nkat.mg^−1
GST activity toward CDNB (GST activity toward CDNB; [6]): 8139 nkat.mg^−1
